# Assay results from patent publication US20160299151.
# T1: L-alanine-L-glutamine
# T1 chain: AQ
# T2: L-glycine-L-glutamine
# T2 chain: GQ
# B1: holo-BpsA (BpsA pre-activated by Sfp as in Example 1), His6-tagged recombinant polypeptide (protein)
# chain: MTLQETSVLEPTLQGTTTLPGLLAQRVAEHPEAIAVAYRDDKLTFRELASRSAALADYLEHLGVSADDCVGLFVEPSIDLMVGAWGILNAGAAYLPLSPEYPEDRLRYMIENSETKIILAQQRLVSRLRELAPKDVTIVTLRESEAFVRPEGTEAPAARSARPDTLAYVIYTSGSTGKPKGVMIEHRSIVNQLGWLRETYAIDRSKVILQKTPMSFDAAQWEILSPANGATVVMGAPGVYADPEGLIETIVKHNVTTLQCVPTLLQGLIDTEKFPECVSLQQIFSGGEALSRLLAIQTTQEMPGRALINVYGPTETTINSSSFPVDPADLDEGPQSISIGSPVHGTTYHILDKETLKPVGVGEIGELYIGGIQLARGYLHRDDLTAERFLEIELEEGAEPVRLYKTGDLGQWNNDGTVQFAGRADNQVKLRGYRVELDEISLAIENHDWVRNAAVIVKNDGRTGFQNLIACIELSEKEAALMDQGNHGSHHASKKSKLQVKAQLSNPGLRDDAELAARPAFDLEGAEPTPEQRARVFARKTYRFYEGGAVTQADLLGLLGATVTAGYSRKAADLAPAELGQILRWFGQYISEERLLPKYGYASPGALYATQMYFELEGVGGLKPGYYYYQPVRHQLVLISEREATGKATAQIHFIGKKSGIEPVYKNNILEVLEIETGHMVGLFEQILPAYGLDIHDRAYEPAVKDLLDVADEDYYLGTFELVPHAGARDDQAEVYVQTHGGKVAGLPEGQYRYENGELTRFSDDIVLKKHVIAINQSVYQAASFGISVYSRAEEEWLKYITLGKKLQHLMMNGLNLGFMSSGYSSKTGNPLPASRRMDAVLGANGVDSAPMYFFVGGRISDEQIGHEGMREDSVHMRGPAELIRDDLVSFLPDYMIPNRVVVFDRLPLSANGKIDVKALAASDQVNAELVERPFVAPRTETEKEIAAVWEKALRRENASVQDDFFESGGNSLIAVGLVRELNARLGVSLPLQSVLESPTIEKLARRLEREVAQESSRFVRLHAETGKARPVICWPGLGGYPMNLRSLAGEIGLGRSFYGVQSYGINEGETPYETITEMAKKDIEALKEIQPAGPYTLWGYSFGARVAFETAYQLEQAGEKVDNLFLIAPGSPKVRAENGKVWGREASFANRGYTTILFSVFTGTISGPDLDRCLETVTDEASFAEFISELKGIDVDLARRIISVVGQTYEFEYSFHELAERTLQAPISIFKAVGDDYSFLENSSGYSAEPPTVIDLDADHYSLLREDIGELVKHIRYLLGE
# How the values were obtained:
# L-alanine-L-glutamine = molecular target: T1, L-alanine-L-glutamine
# L-glycine-L-glutamine = molecular target: T2, L-glycine-L-glutamine
protein,measurement,setting,value
B1,blue pigment formation (A590 after resuspension in DMSO) after 72 hours at 25 C with 4 mM substrate,L-alanine-L-glutamine,"In each case except the no substrate control, blue pigment formation was observed, suggesting that an indigoidine like product had indeed been formed"
same,blue pigment formation (A590 after resuspension in DMSO) after 72 hours at 25 C with 4 mM substrate,L-glycine-L-glutamine,"In each case except the no substrate control, blue pigment formation was observed, suggesting that an indigoidine like product had indeed been formed"
